{"source": "the DeepSol protein solubility set"}
{"assay": "soluble on expression in E. coli; label from the status in PepcDB or PDB records"}
{"sequence": "MGSDKIHHHHHHMALVKLQPGDITSDDPIPFPIYSADGKLLLQEGQSVTTSSLLDRLYDLGYRKSTEKVRSGPFNPVSHAPQVNTELLISSAHAHEKALPKPEAISGRSMNVLPTLKHRVEFFRLTPAGGSEAIHVDLVGVVHEKTIIVRSTGPDESVVLDPEHSYQAKLFTGSHLSTFSTRLTPDGVGPFGCYYLEYPDNLIHATVRKHRRVTTSFPAKLQSGEYQRASVDVTVSNISLIGAGVSSSVDFLTVGQSARLSMNLSVAQRVRPVEVYVEVRNRREKDGGFFYGLEFVRVSDEVRLEIKDFVLDSLATL", "soluble on expression in E. coli": "not soluble"}
{"sequence": "MGSDKIHHHHHHMANYPGIDTELLRTFVAIADHGGFTRAGEVVNRTQSAVSMQMKRLEEDVVQRQLFQREGRTLNLTAEGQVLLGYARRILKLHSEVFNTLREPHMVGVVKIGSPDDYVMRFLPGILSQFAQAYPLVQVEVHCEPSDLLLQRQDLDLTIVTRKPGTEIGTLLRHERLVWMEAIGFAPHEQKPMPLAMFNTHCFCRDWACNALDSVEREYRIAYTSSSMAAITAVVSAGLAVTAQFQSLATPELRILGDAEHLPHLPTASIVLLRNPKTPSPITECMADYIIDGFKP", "soluble on expression in E. coli": "not soluble"}
{"sequence": "MGSDKIHHHHHHMAQIKPISGAEDRVLLAEALPLVSPFTLNVFPTNACNFKCSYCAQSLGAEALAATYGMDRGFMSLETMELIVEQSKAFAPYKLLSFMGHGEPLLNRDLPKMISLAARAGIAQRIEIITNASMLTHEYADELIDSGLTNLRVSLQGLDMESYRKICGVALDFDRFMERLVYFYTHKKKDMGLFVKIMDVSLPIGGAKEFYKLFNNICDRMYVENVQPVYHAVDVHSSNGSDLTRYDRYGNAHPPRTVCPLAFFSLAVWPNGDVQPCDAIYKPCVLGNVHNTNLREMWDSELLKQFRIRHLRGEKEIITGCSNCCAPDDVSHPLDALDDRKDEILCRLFG", "soluble on expression in E. coli": "not soluble"}
{"sequence": "MGSDKIHHHHHHMARKPIDRPVHIPPLQALRALEAAARHRSFSRAAEELALTHSAISHHMRALEDKLGTKLFQRTGSQMAPTSAGARLAEQIRAALDDIESAVREASSSTTTPVVRLQVSVMADLANAWLIRRLPSLHAQVPSLDLHLRLHAEITPPDPYSVDVGIWHQRIDLPGFECHNLIEDHVIAVASPALLARYPGFTPADVPRMPMLRFALRPWRDWLEAAGLPDAEPERGPIFQDAGLMLQSAVAGLGVATARAQLAHDYLESGQLVQVGSTRIPSSLHYWVTWREGNPREKAIQQFHAWLQEQVRRETPTAEPTTTDDAMK", "soluble on expression in E. coli": "not soluble"}
{"sequence": "MGSDKIHHHHHHMARKPRIHYPGALYHVILRGNARQDIFHDPEDRYRFYLFLQEGAERFGHRILAFCLMTNHVHLAVQVGEVPLSRFMQNITFRYTRWQNWRMGKTGHLFQGRYKSFLVDGDAYLQELVAYIHLNPVRAGMTTKLGSYTWSSHRAYLGKEIIPWLNTETVLATYSSDTSTARKQYATFISDRVKEGHREEFHGKGSSDSRVIGDDHFVEAILERADRLPLRRPGLDMVVEVIKRLYRLDEEELASPGQKRWAAEARGVAAWAVQEFSSATLTDLAKRFGRDVSSMSAAVRRLEQRRKIDQGIAERLERVGRELEGAIFQA", "soluble on expression in E. coli": "not soluble"}
{"sequence": "MGSDKIHHHHHHMASIALNNLTYTYPQASTPILDRVNLTLPRQSFILLTGPSGTGKSTLLKLIAGLLPLTPDDGTITFDGQALTASTANQRAQHVAMMFQNPNQQFAMDTVENELIFALENLQVPRDQIPARLLSALDFVGIRNLQSRLLNHLSGGEKQKVALAIIVAMDSDVILLDEPFASVDPTARAVLLDRLVELRNQHGKTIILADHDLSGYEQLVDQVVQIKDQHLQLIDRTTWSELFSAFTEQPQRSWSAPQRVERPCFQLDHVTLQAGDRQLLVPTTRQLLAQHNTLITGPNGSGKSTLFEALVRLHPYTGEIRYEGTPIDKLKRKRYARHVALLFQDAETQFLNITVAEELAQSKRYAYGDYFTADRIQTALVQLNLSGRDEQVIYTLSEGQKKKLQILLMLIMQSPVLLMDEPLKGLDLHSINALVALLQTTQAATKQTLIIISHQLTGLMPLIDYQLHFENHHLDWVVRS", "soluble on expression in E. coli": "not soluble"}
{"sequence": "MGSDKIHHHHHHMASKEEQYAAFYQFLETLDCYLTTTNALENEVAQFKENPHREIAGFMLASSETIDVPKGFIRMLYCLEQDGYAYLDQQRCSFSAGQVMIVNEATSVSYQGQGMSMIIFYFKKHYFLDTLLNQLAEEPVMYRFFTEIASSEFENIPRYFVFASQPNSDVHVYSLLLLKQIVKMAYFNNKVTKAAFVLLVVELGQLPREALKMQDNYLSNHQRVEVILAYIEQQIAHVTLAEVAAKFHFHPNYLSNFLKEKTNKTFTEIVLAYRIQLAKNYLKQTDLSIQTIVERIGYQDKAFFYKRFKEEMGMTPKQYRQKEGMADVRRSL", "soluble on expression in E. coli": "not soluble"}
{"sequence": "MGSDKIHHHHHHMASYHLNAKMAQDIVSRTMQIIDSNINVMDARGKIIGSGDQERLGELHEGALLALSQGRVVDIDDAVARHLHGVRPGINLPLRIDGEIVGVIGLTGNPSQLRQYGELVCMTAEMMLEQARLLHMLAQDSRLREELVLNLVRTDDLSPALMEWAQRLGIDMNKPRVAAVIEVDSGQLGVDSAMAELQQLQTLLTTPERDNLIAIVSLTEMVVLKPALNSHGRWDAEEHRRRVDTLMSRMAESSRLRVRLALGNYFAGPGSIARSYRTARTTMSVGKQRMPAQRCYYYQDLMLPVLLDSLRGGWQANELVRPLSKLKAMDGNGLLRRTLGAWFRNNVQPGATAKALFIHRNTLEYRLNRISELTGLDLGNFDDRLLLYVALQLDEEE", "soluble on expression in E. coli": "not soluble"}
{"sequence": "MGSDKIHHHHHHMATIKDIAARLGVSISTVSKGLNGASDISEELRQTVLDTAVEMGYSTKRSRKVENRKLALFIENMNYESIDEFGYDVVLGFKQNAFKHKWDVDIIPVTPQLQAEEKYDTYILKNGYCGAFLVGFALHDEWMQQLKNTTMPTVLFDNYIENNPNVAYVGTDSYEGIDMAVKHLHNLGHKKIAFINGSLFSLVSDQRQEAFENSMRDAGLEIYPELMGHGYYIPETAQYYVSNFIAAGATAILCGSDTIAKGVISECQLHGFNVPNDISVVGFDDVKFAAALTPPLTTIRQERNDLGRCAYIILNSLIHHIPISRTQLRPMLIERESTARVSTAHAAEE", "soluble on expression in E. coli": "not soluble"}
{"sequence": "MGSDKIHHHHHHMAVITISREMGTGAYQIAREVAKRLKHTLVDGNKIAELAPRYGLDKELLKRVDEKPPVYITAEDRMHAAHLNTIEIIILDCVKQGNVILYGRGAQDLLSDVENILRIRFIAPFEHRVENFSEREWIDPDLARELIRKSDHQRGGFIHFYFNRDWNDSLGYDLTFNTERMSQSAIIESIIAAAKDSRLKEGEERLKQVIDETILAKKVETAFLKSGDIEYIHFRISVSGKVVSFSGHVHSEAEKREAIRLATAVEGVERVEGDLQVLNYKSHKG", "soluble on expression in E. coli": "not soluble"}
{"sequence": "MGSDKIHHHHHHMAVQFELYKTPMPKEKKNKTRYHARPVSFETVNTEKLAYRIHDRSTLRVSDIISTLEELKNEVAQCLLEGKKVHVDGLGFFQVTLSCEEEIRNPKDKRVHRVKLKAIKFKADKELKGELCHMKFQRSKIRPHSANLSEVEIDMKLTEYFAENQIITRKDFQYLCGMTQITAYRHIKRLMAEKKLQNKGTIYQPIYTPVPGNYRVSVDLKYKEQ", "soluble on expression in E. coli": "not soluble"}
{"sequence": "MGSDKIHHHHHHMCRWLAYTGNPIHLETVLFRAKHSLIDQSLHSELGATTTNGDGFGIGWYGDPDELPFRYRSVHPAWNDRNLREAARAIRSRMFVAHIRAATDTPVQETNCHPFRHGRWLFAHNGLIRDFHKLRRDLTMKVDPALFPTLEGSTDSELMFRLALTYGLEQTPLPALERMVGMVEETAARYRVDEPLNMTICATDGDRIIAVRYSSERQSRSLFHTTSFKHLHELYPHNPRIAEAGDDAFMVVSEPLVDLRGAWEEVAESTAIVAQGADVQQRPFNPRHT", "soluble on expression in E. coli": "not soluble"}
{"sequence": "MGSDKIHHHHHHMDDFVQSKARKDIFRLKAYVPGKPIEEVKRELGLDSIIKLASNENPLGTSPLALAALQEGLNKIHLYPDANAYELKQELASFWQVPAEQIVVGNGSDELLLLLAQTFINPGDEVIHAEQTFSEYESTSTLMGAHSITIPLKEYKYDLKAILEAINTRTKIIYLCNPNNPTGTIVEQEEIELFMQQVPGEILVVFDEAYGEYVDNPAFGSGLQYLREGRNIVLLKTFSKIYGLAGLRIGYVITTPAIAAALDRVREPFNVNFAAQIAAQAALRDIDFVEKSRQLNLQGKDYLYQELARLGLDYVKTNTNFIFLDTGRDCQLVFRELLQRGVIIRTGDIFGYPTFIRLTIGTMEENRRFIKSLQEVLEVIPL", "soluble on expression in E. coli": "not soluble"}
